According to paper doi:10.1101/2022.08.30.505852 (bioRxiv, 2022):
Positions count from the first letter of the chain named. Where “and” joins values, the source holds several entries; their conditions need not be identical. Identical values can stand only once. Each block holds one binder with its values, some of them ahead of it.

T1: βCAT_(CTERM) D764A (human, UniProt P35222 666-781, D764A)
T1 sequence (looked up): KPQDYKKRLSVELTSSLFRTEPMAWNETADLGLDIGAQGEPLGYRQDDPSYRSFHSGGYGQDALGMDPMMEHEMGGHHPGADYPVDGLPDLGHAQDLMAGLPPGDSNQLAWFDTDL

T2: βCAT_(CTERM) F777A (human, UniProt P35222 666-781, F777A)
T2 sequence (looked up): T1 sequence (looked up) with A99D, F112A

T3: βCAT_(CTERM), β-catenin residues 666-781 (human, UniProt P35222 666-781)
T3 sequence (looked up): T1 sequence (looked up) with A99D

T4: βCAT_(CTERM) D751A (human, UniProt P35222 666-781, D751A)
T4 sequence (looked up): T1 sequence (looked up) with D86A, A99D

T5: βCAT_(CTERM) D761A (human, UniProt P35222 666-781, D761A)
T5 sequence (looked up): T1 sequence (looked up) with D96A, A99D

B1: TAZ1 domain of CBP (residues 346-440) (domain or fragment)
chain: not shown
B2: TAZ2 domain of p300 (residues 1723-1812 with four stabilizing mutations) (domain or fragment, UniProt Q09472 1723-1812, looked up)
chain: ATQSPGDSRRLSIQRAIQSLVHAAQCRNANCSLPSCQKMKRVVQHTKGCKRKTNGGCPICKQLIALAAYHAKHCQENKCPVPFCLNIKQK
B3: βCAT_(TAD2), β-catenin residues 730-781 (domain or fragment, human, UniProt P35222 730-781, looked up)
chain: GMDPMMEHEMGGHHPGADYPVDGLPDLGHAQDLMDGLPPGDSNQLAWFDTDL

What was measured:
Test in all cases: ITC
[1] = molecular target: B1
[2] = molecular target: T1, βCAT_(CTERM) D764A
[3] = molecular target: T2, βCAT_(CTERM) F777A
[4] = molecular target: T3, βCAT_(CTERM), β-catenin residues 666-781
[5] = molecular target: T4, βCAT_(CTERM) D751A
[6] = molecular target: T5, βCAT_(CTERM) D761A
[7] = molecular target: B3

Kd [1]: 2170 ± 70 nM
Binder: VDGLPDLGHAQDLMDGLPPGDSNQLAWFDTDL (peptide, UniProt P35222 750-781, looked up) [βCAT_(750-781), β-catenin residues 750-781]

Binder: B1
Kd [2]: 320 nM and 600 nM | Kd [3]: 550 nM and 320 nM | Kd2 (two-site fit) [4]: 0.65 ± 0.22 µM | Kd [5]: 390 nM and 550 nM | Kd [6]: 600 nM and 390 nM

Binder: B2
Kd2 (two-site fit) [4]: 3.42 ± 0.2 µM | Kd2 (two-site fit) [7]: 1.18 ± 0.43 µM

Binder: B3
Kd [1]: 380 ± 20 nM
